The target in this assay is Human PCSK9 (full length), 6xHis-tagged, purified (human) (UniProt Q8NBP7). As to the kind of experiment: BLI; biotinylated PCSK9 or biotinylated CHRD immobilised (0.2 μg/ml), CAP1 in solution, pH 7.5, association and dissociation 600 s. On the technique in general: In BLI a coated tip is dipped into the sample, and binding shifts an interference pattern.

Human CAP1 (cyclase associated protein 1), 6xHis-tagged, purified, sequence (Q01518 whole entry): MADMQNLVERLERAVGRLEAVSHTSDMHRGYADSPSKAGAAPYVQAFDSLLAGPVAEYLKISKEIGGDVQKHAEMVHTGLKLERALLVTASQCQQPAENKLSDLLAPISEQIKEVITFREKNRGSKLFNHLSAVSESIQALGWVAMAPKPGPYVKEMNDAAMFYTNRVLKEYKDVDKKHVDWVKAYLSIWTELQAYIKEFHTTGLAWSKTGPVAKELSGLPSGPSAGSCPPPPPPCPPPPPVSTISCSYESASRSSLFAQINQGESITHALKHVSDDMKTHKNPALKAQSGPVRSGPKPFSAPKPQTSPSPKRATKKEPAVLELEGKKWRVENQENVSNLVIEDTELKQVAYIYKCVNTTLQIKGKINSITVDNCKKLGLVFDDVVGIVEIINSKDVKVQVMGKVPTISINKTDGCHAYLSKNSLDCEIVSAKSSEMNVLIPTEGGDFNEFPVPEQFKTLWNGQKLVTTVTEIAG

Usually Kd stands for the equilibrium constant for the complex coming apart. Broadly, the koff is a measure of how fast the partners let go of each other. High values mean a short-lived complex, low ones a long-lived complex. By kon is commonly meant a measure of how fast the partners come together. Higher therefore signals fast association. “Human CAP1 (cyclase associated protein 1), 6xHis-tagged, purified (from UniProt Q01518 1-475) (natural protein)” showed a dissociation constant Kd of 1.36 µM, an off-rate constant (koff) of 0.00094 s⁻¹ and an on-rate constant (kon) of 690 M⁻¹ s⁻¹.

Source of the values: PMC9816786.
